# Laboratory results published in patent publication US12129222B2, “Production of bitter principle derivatives” (Julius-Maximilians-Universitaet Wuerzburg, priority 2016, dated 2024).
# Non-standard residues stand in square brackets, D forms with d.
# Molecular target: MMP-8 (Homo sapiens, UniProt P22894)
# Assay: Enzymatic peptide cleavage by matrix metalloproteinases
# Format: biochemical
# Conditions: after cleavage from the resin; activated MMP, 1 h at 37° C., pH 7.0; LC-MS
# Experimental: (§1) For that, a 2-3 hour activation of the pre-MMP by p-aminophenyl mercury acetate (APMA 10 mM in 0.1 M NaOH) in a ratio of 10:1 (MMP:APMA v/v) takes place at 37° C. Subsequently, the activated MMP is added to the peptides dissolved in buffer (200 mM NaCl, 50 mM Tris-HCl, 5 mM CaCl2, 1 μM ZnCl2, 0.05% BRIJ® 35, 0.05% NaN3, pH 7.0) in defined concentrations (9 ng/ml, 45 ng/ml, 90 ng/ml, 225 ng/ml, 450 ng/ml, and 900 ng/ml) and incubated for 1 h at 37° C. The reaction is stopped by separation/filtration of the MMP by centrifugation or addition of 10 equivalents of EDTA (250 mM). The cleavage products are analyzed by liquid chromatography with masse spectrometry coupling (LC-MS).
# as §1, with “concentrations” for “concentrations (9 ng/ml, 45 ng/ml, 90 ng/ml, 225 ng/ml, 450 ng/ml, and 900 ng/ml)”, “mass” for “masse”
# Chain of MMP-8 (P22894 101-467, species assumed): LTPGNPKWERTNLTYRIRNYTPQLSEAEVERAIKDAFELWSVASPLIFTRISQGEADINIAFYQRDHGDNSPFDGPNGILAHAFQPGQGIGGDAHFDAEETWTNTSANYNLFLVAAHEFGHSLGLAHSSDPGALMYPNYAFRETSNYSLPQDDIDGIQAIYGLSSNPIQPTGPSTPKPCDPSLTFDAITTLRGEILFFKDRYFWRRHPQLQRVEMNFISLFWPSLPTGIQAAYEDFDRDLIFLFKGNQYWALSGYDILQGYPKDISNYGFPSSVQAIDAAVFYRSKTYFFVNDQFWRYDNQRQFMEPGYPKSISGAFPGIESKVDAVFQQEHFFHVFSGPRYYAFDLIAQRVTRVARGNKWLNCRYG
substance,measurement,value
NH2-G-p-q-G-I-A-G-q-Q—COOH: peptide modified by replacing L by D amino acids (small letters mean D-amino acids) (H-G[dP][dQ]GIAG[dQ]Q-OH; SMILES CC[C@H](C)[C@H](NC(=O)CNC(=O)[C@@H](CCC(N)=O)NC(=O)[C@H]1CCCN1C(=O)CN)C(=O)N[C@@H](C)C(=O)NCC(=O)N[C@H](CCC(N)=O)C(=O)N[C@@H](CCC(N)=O)C(=O)O),cleavage by matrix metalloproteinases (MMP) such as MMP-8,specifically cleaved
